Assay results published in patent US20100286365.

Columns and labels:
[1] = tested on: GLP-1(7-37)-GG-(S)-2,6-diamino-1-(thiazolidin-2-cyano-3-yl)hexan-1-one amide
[2] = tested on: GLP-1(7-37)-GG-(S)-2,6-diamino-1-(thiazolidin-3-yl)hexan-1-one amide
Chain of GLP-1(7-37)-GG-(S)-2,6-diamino-1-(thiazolidin-3-yl)hexan-1-one amide (chain, as listed by the source): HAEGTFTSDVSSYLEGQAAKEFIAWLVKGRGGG

Chain of GLP-1 (chain, as listed by the source): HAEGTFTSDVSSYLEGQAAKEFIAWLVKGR

Recombinant DPP-IV was tested, and the “hydrolysis catalyzed by DPP-IV (mass spectrometry)” value [1] was “the expected product ions were not observed, indicating that these two compounds are DPP-IV resistant under the test conditions”, the “percentage of hydrolysis catalyzed by DPP-IV (mass spectrometry)” value (GLP-1) was “the DPP-IV catalyzed cleavage afforded the GLP-1 (9-36) product in 17% yield” and the “hydrolysis catalyzed by DPP-IV (mass spectrometry)” value [2] was “the expected product ions were not observed, indicating that these two compounds are DPP-IV resistant under the test conditions”.
